From US20180313827A1

Tests used:
[1] = target: Ddx4_N1_1 (disordered N-terminus of Ddx4 protein, forming Ddx4N1 membraneless organelles / proteinaceous phase) (Homo sapiens (Human)) (UniProt Q9NQI0); experiment: confocal fluorescence microscopy, partitioning inside vs outside Ddx4N1 organelles in vitro; 5 µM, 150 mM NaCl
[2] = target: Ddx4_N1_1 (disordered N-terminus of Ddx4 protein, forming Ddx4N1 membraneless organelles / proteinaceous phase) (Homo sapiens (Human)) (UniProt Q9NQI0); experiment: confocal fluorescence microscopy, partitioning inside vs outside Ddx4N1 organelles in vitro; 11.8 µM, 175 mM NaCl

Sequence of UniProt Q9NQI0 (Q9NQI0 other isoform, or with tags, fused parts or gaps limits assumed): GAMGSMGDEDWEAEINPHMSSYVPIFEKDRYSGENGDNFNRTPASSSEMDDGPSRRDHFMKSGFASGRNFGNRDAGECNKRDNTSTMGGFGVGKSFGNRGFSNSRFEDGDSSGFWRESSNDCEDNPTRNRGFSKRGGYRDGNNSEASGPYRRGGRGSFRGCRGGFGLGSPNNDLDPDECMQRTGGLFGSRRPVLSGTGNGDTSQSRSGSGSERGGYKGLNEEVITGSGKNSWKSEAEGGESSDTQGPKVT

| ΔGpart (partition free energy into Ddx4N1 organelles) [1] [kJmol^-1] | ΔGpart (partition free energy into Ddx4N1 organelles) [2] [kJmol^-1] | Substance |
| --- | --- | --- |
| 1.6 |  | GFP^-30 (acidic GFP, -30 surface charge) |
|  | -7.8 | aB_GFP (alphaB-crystallin fused to GFP, oligomer) |
